# Results reported in PMC4760375, “A dual phosphorylation switch controls 14-3-3-dependent cell surface expression of TASK-1” (Journal of Cell Science, 2016).
# Non-standard residues stand in square brackets, D forms with d. No end group written: not given here. pS = N[C@@H](COP(=O)(O)O)C(=O)O
# T1: 14-3-3β (human, UniProt P31946 1-246)
# T1 chain: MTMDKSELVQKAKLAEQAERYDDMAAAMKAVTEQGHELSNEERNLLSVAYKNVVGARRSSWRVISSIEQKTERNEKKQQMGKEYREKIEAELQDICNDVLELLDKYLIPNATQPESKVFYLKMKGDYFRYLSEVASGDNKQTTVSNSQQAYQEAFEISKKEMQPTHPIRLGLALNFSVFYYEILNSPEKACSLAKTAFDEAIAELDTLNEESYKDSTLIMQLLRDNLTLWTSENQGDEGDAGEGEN
# T2: 14-3-3ε (human, UniProt P62258 1-255)
# T2 chain: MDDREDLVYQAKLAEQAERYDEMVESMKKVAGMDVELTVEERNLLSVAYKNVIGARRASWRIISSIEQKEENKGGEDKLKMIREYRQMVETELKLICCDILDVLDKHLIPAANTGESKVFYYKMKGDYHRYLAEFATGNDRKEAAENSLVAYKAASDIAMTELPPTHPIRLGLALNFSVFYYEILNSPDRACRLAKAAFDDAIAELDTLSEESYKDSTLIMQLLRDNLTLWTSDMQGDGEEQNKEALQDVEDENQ
# T3: 14-3-3σ (human, UniProt P31947 1-248)
# T3 chain: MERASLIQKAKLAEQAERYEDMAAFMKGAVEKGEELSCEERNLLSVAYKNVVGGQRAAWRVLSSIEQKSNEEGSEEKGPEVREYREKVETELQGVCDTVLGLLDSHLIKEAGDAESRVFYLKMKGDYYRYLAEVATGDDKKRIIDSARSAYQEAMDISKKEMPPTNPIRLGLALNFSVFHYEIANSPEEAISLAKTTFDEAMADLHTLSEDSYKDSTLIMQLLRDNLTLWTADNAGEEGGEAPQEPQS
# T4: GST-tagged TASK-3 C-terminal 15 residues fusion protein, phosphorylated with PKA catalytic subunit (human, UniProt Q9NPC2 360-374)
# T4 chain: {GST}-SFTDHQRLMKRRK[pS]V
# T5: TASK-3 pS373 ΔV374 C-terminal fluorescent peptide (human, UniProt Q9NPC2 360-374, ΔV374, also: fluorescein label, position not given here)
# T5 construct: TASK-3 (KCNK9), human, C-terminal peptide with phosphorylated S373 but lacking the C-terminal valine V374; ends at pS373; source: synthetic peptide, bought: Peps4Life Sciences
# T5 peptide (looked up): SFTDHQRLMKRRK[pS]
# How the values were obtained:
# 14-3-3β = molecular target: T1, 14-3-3β; test: fluorescence polarization titration; conditions: reference: unphosphorylated peptide; sites S373
# 14-3-3ε = molecular target: T2, 14-3-3ε; test: fluorescence polarization titration; conditions: reference: unphosphorylated peptide
# 14-3-3γ = 14-3-3γ (UniProt P61981); test: fluorescence polarization titration; conditions: reference: unphosphorylated peptide
# 14-3-3τ = 14-3-3τ (UniProt P27348); test: fluorescence polarization titration; conditions: reference: unphosphorylated peptide; sites S373
# 14-3-3ζ = 14-3-3ζ (UniProt P63104); test: fluorescence polarization titration; conditions: reference: unphosphorylated peptide
# [1] = molecular target: GST-tagged TASK-3 C-terminal 15 residues fusion protein, phosphorylated with PKA catalytic subunit (human) (UniProt Q9NPC2); test: SPR; GST fusion protein captured by an anti-GST antibody on an HC1000m chip, phosphorylated on the chip with PKA catalytic subunit; 14-3-3 proteins as analyte; 20°C; 150 mM NaCl, 20 mM HEPES, 0.005% (v/v) Tween 20, pH 7.5; equilibrium binding isotherms
# [2] = molecular target: TASK-1 pS392 C-terminal fluorescent peptide (human) (UniProt O14649); test: fluorescence polarisation; 10 nM fluorescein-labelled peptide titrated with 14-3-3 protein (1 nM to 120 µM in the results, 100 µM to 1 nM in the methods); 20 mM MOPS, 150 mM NaCl, 0.005% (v/v) CHAPS pH 7.0; room temperature; monophasic fit
# [3] = molecular target: doubly phosphorylated TASK-1 C-terminal fluorescent peptide (pS392 and pS393) (human) (UniProt O14649); test: as above
# 14-3-3η = 14-3-3η (UniProt Q04917); test: fluorescence polarization titration; conditions: reference: unphosphorylated peptide; sites S393
# 14-3-3σ = molecular target: T3, 14-3-3σ; test: fluorescence polarization titration; conditions: reference: unphosphorylated peptide; sites S393
# [4] = molecular target: T4, GST-tagged TASK-3 C-terminal 15 …; test: SPR
# [5] = molecular target: TASK-1 pS393 C-terminal fluorescent peptide (last 15 amino acids) (human) (UniProt O14649); test: fluorescence polarisation; 10 nM fluorescein-labelled peptide titrated with 14-3-3 protein (1 nM to 120 µM in the results, 100 µM to 1 nM in the methods); 20 mM MOPS, 150 mM NaCl, 0.005% (v/v) CHAPS pH 7.0; room temperature; monophasic fit
# [6] = molecular target: T5, TASK-3 pS373 ΔV374 C-terminal …; test: as above; conditions: both partners purified
molecule,measurement,setting,value
TASK-3 last 15 amino acids of the C-terminus (from UniProt Q9NPC2) pS373 peptide,binding against the reference,14-3-3β,gained
same,binding against the reference,14-3-3ε; sites S373,gained
same,binding against the reference,14-3-3γ; sites S373,gained
same,binding against the reference,14-3-3τ,gained
same,binding against the reference,14-3-3ζ; sites S373,gained
14-3-3γ (from UniProt P61981 1-247) (natural protein),Kd,[1],0.045 µM
same,Kd,[2],100 µM
same,Kd,[3],200 µM
TASK-1 last 15 amino acids of the C-terminus (from UniProt O14649) pS393 peptide,binding against the reference,14-3-3ε; sites S393,gained
same,binding against the reference,14-3-3η,gained
same,binding against the reference,14-3-3σ,gained
same,binding against the reference,14-3-3γ; sites S393,gained
same,binding against the reference,14-3-3ζ; sites S393,gained
"14-3-3β (natural protein, human, UniProt P31946 1-246, looked up, 14-3-3 protein beta, human; open reading frame inserted into pMAL2Cx; also called 14-3-3 beta) MTMDKSELVQKAKLAEQAERYDDMAAAMKAVTEQGHELSNEERNLLSVAYKNVVGARRSSWRVISSIEQKTERNEKKQQMGKEYREKIEAELQDICNDVLELLDKYLIPNATQPESKVFYLKMKGDYFRYLSEVASGDNKQTTVSNSQQAYQEAFEISKKEMQPTHPIRLGLALNFSVFYYEILNSPEKACSLAKTAFDEAIAELDTLNEESYKDSTLIMQLLRDNLTLWTSENQGDEGDAGEGEN",Kd,[4],0.181 µM
same,Kd,[2],100 µM
same,Kd,[5],7.5 µM
same,fold reduction of affinity against the TASK-3 pS373 peptide with V374,[6],3 fold
